Measured values taken from patent US20240067747A1 (SHANGHAI HUAOTA BIOPHARMACEUTICAL, published 2024).

T1: human CD73 on the cell surface of CHOK1-huCD73-3F4 cells (Huabo Biopharm) (human, UniProt P21589 27-549)
T1 sequence (looked up): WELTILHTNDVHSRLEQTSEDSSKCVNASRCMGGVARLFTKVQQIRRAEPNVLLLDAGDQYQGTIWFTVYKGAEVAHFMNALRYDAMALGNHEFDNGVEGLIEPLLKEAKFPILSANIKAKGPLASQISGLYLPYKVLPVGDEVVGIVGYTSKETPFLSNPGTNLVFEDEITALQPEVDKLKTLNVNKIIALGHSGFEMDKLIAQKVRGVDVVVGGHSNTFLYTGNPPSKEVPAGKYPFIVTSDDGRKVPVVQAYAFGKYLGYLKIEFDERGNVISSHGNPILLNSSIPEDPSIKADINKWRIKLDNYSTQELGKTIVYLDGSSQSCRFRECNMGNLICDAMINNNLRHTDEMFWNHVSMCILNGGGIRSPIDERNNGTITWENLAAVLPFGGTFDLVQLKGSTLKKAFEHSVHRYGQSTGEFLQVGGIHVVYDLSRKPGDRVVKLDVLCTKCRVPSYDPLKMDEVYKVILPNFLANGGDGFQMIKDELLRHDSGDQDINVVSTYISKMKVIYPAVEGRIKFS

T2: Mouse CD73/NT5E protein (ACRO Biosystems, item No. CD3-M52H9) (mouse, UniProt Q61503 29-551)
T2 construct: Bought protein
T2 sequence (looked up): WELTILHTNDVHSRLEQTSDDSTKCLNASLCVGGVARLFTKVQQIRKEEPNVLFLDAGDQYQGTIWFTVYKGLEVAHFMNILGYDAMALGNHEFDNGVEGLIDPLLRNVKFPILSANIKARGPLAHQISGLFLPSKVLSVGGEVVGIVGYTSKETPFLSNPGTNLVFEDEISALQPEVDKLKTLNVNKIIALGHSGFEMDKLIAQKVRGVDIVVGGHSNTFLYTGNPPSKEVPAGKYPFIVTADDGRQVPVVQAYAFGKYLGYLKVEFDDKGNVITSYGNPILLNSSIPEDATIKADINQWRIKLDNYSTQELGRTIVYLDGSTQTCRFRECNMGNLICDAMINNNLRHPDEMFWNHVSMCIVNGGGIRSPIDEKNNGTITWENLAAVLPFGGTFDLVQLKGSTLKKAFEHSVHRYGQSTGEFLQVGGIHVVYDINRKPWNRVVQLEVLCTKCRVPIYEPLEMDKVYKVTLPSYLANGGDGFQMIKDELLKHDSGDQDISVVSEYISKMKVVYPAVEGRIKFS


What was measured:
[1] = target: T1, human CD73 on the cell surface of …; test: cell-based or functional assay
[2] = target: T3, Lysozyme from chicken egg (Sigma, L3790) (chicken, UniProt P00698 19-147); test: SPR, Biacore 8K, lysozyme immobilized on CM5 chip
T3 construct: Non-target molecule, amine-coupled to a CM5 chip
T3 sequence (P00698 19-147 limits assumed): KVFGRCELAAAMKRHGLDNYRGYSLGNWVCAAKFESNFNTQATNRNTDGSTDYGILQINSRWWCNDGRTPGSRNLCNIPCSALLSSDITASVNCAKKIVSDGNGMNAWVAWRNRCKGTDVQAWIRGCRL
Experimental: (§1) The non-specific adsorption effect of antigen-binding proteins and non-target molecules were determined by using the SPR method.
(§2) The series sensor chip CM5 (GE, #BR-1005-30) was equilibrated at room temperature for 20-30 min and then loaded into the Biacore 8K (GE) instrument. Lysozyme solution (Sigma, #L3790) from egg and trypsin inhibitor type 1-S (Sigma, #T-2327) from Glycine max were immobilized onto the CM5 chip using an amino coupling kit (GE, #BR-1000-50). The injection buffer was HBS-EP (1×) (GE, #BR-1006-69) and four equilibration cycles were set up. The polyclonal rabbit anti-lysozyme (ABcam, Ab391), anti-trypsin inhibitor antibodies (LifeSpan Biosciences, #LS-C76609), chimeric antibodies and humanized antibodies were diluted with equilibration buffer to 1000 nM, and the flow rate was set at 5 μL/min and injection channels 1, 2 and 3, Flow Cell 1 and 2 were selected. The association time was 10 min and the dissociation time was 10 min.

[3] = target: T1, human CD73 on the cell surface of …; test: flow cytometry on CHOK1-huCD73-3F4 cells, PE-goat anti-human-Fc
Experimental: All antigen-binding proteins were diluted to 30 μg/ml with 1% BSA in PBS solution (1% BSA/PBS) and then 3-fold diluted for 11 gradients. The diluted antigen-binding proteins were added to a 96-well U-shaped plate at 20 μL per well; and a negative control (with 1% BSA/PBS added only) was set up at the same time. The suspension of cells (CHOK1-huCD73-3F4, Huabo Biopharm) expressing human CD73 during the logarithmic growth phase were centrifuged (1000 rpm×5 min) to discard the culture medium; and the cells were resuspended with 1% BSA/PBS until the density of viable cells was 1×10⁶/mL, and were added, at 20 μL (2×10⁴ cells) per well, to the 96-well U-shaped plate with the […] antigen-binding protein to react for 30 min at room temperature. After reaction, the 96-well U-shaped plate was resuspended with 1% BSA/PBS, centrifuged (300 g×3 min) to discard the supernatant, and washed once in such a way. PE-goat anti-human-Fc (Jackson ImmunoResearch, #109-115098) diluted at 1:200 was added to react for 15 min in the dark at room temperature. After reaction, the 96-well U-shaped plate was resuspended with 1% BSA/PBS, centrifuged (300 g×3 min) to discard the supernatant, washed three times in such a way, and finally resuspended with 100 μL of 1% BSA/PBS for each wall; and the fluorescence intensity of a PE channel was detected with a flow cytometer (BD, #Cantoll).

[4] = target: T2, Mouse CD73/NT5E protein (ACRO …); test: SPR, Biacore T200, antibody captured on protein A chip, CD73 as analyte
Experimental: In the tests, the assay buffer HBS-EP+ (pH 7.4) and the protein A chip (manufacturer: GE, item No.: 29-1275-56) were used.
The temperatures of a sample chamber and a flow path were set at 25° C., and the protein A chip respectively captured antigen-binding proteins as ligands and immobilized at about 100 RU. […] After association for 120 s at a flow rate of 30 μL/min, dissociation was carried out for 600 s. Regeneration was then carried out for 60 s with 10 mM Glycine (pH 1.5) at a flow rate of 50 μL/min to implement multi-cycle kinetic detection. A 1:1 binding model was selected for fitting analysis in a Fit local mode to acquire the association rate constant (ka), dissociation rate constant (kd) and dissociation equilibrium rate constant (KD).

[5] = target: T3, Lysozyme from chicken egg (Sigma, L3790); test: SPR, Biacore 8K, lysozyme immobilized on CM5, antibody at 1000 nM; buffer alone 16.9 RU
Experimental: as §1, §2
The PI of carboxymethyl dextran was 3.5, the PI of the trypsin inhibitor was 4.5, and the PI of lysozyme was 11.3. In the HBS-EP buffer solution with a pH of 7.4, carboxymethyl dextran and the trypsin inhibitor had strong negative charges, and lysozyme had strong positive charges.

EC50 of inhibition of the enzyme activity of CD73 on cell membrane (AMP/ATP, CellTiter-Glo) [1] [µg/mL]	EC50 [3] [µg/mL]	non-specific binding amount (RU) [5] [RU]	Binder	binding result [2]	binding result [4]
0.0697	0.106	20.3	900725 (humanized anti-CD73 antigen-binding protein) (antibody, V domains shown) VH: QVQLVQSGAEVKKPGASVKLSCKASGYTFTSYWIHWVRQAPGQGLEWIGMIHPNSGSTYYNEKFKGRATLTVDKSTSTAYMELSSLRSEDTAVYYCARYYGSDYEWYFDVWGQGTTVTVSS VL: DIQMTQSPSSMSASVGDRVTITCKASQNVRTAVVWYQQKPGKAPKALIYLASNRHTGVPDRFSGSGSGTDFTLTISSLQPEDFATYFCLQHWNYPYTFGQGTKLEIK	no binding (tested: 1000 nM antibody; 20 RU)	no binding (tested: 50 nM (highest analyte concentration))
	0.174	17.7	900726 (humanized anti-CD73 antigen-binding protein) (antibody, V domains shown) VH: QVQLVQSGAEVKKPGASVKLSCKASGYTFTSYWIHWVRQAPGQGLEWIGMIHPNSGSTYYNEKFKGRATLTVDKSTSTAYMELSSLRSEDTAVYYCARYYGSDYEWYFDVWGQGTTVTVSS VL: DIQMTQSPSSLSASVGDRVTITCKASQNVRTAVVWYQQKPGKAPKALIYLASNRHTGVPDRFSGSGSGTDFTLTISSLQPEDFATYYCLQHWNYPYTFGQGTKLEIK	no binding (tested: 1000 nM antibody; 20 RU)	no binding (tested: 50 nM (highest analyte concentration))
		17.6	900727 (humanized anti-CD73 antigen-binding protein) (antibody, V domains shown) VH: QVQLVQSGAEVKKPGASVKVSCKASGYTFTSYWIHWVRQAPGQGLEWIGMIHPNSGSTYYAQKFQGRVTITVDKSTSTAYMELSSLRSEDTAVYYCARYYGSDYEWYFDVWGQGTTVTVSS VL: DIQMTQSPSSMSASVGDRVTITCKASQNVRTAVVWYQQKPGKAPKALIYLASNRHTGVPDRFSGSGSGTDFTLTISSLQPEDFATYFCLQHWNYPYTFGQGTKLEIK	no binding (tested: 1000 nM antibody; 20 RU)	no binding (tested: 50 nM (highest analyte concentration))
0.0467	0.105	20.2	900728 (humanized anti-CD73 antigen-binding protein) (antibody, V domains shown) VH: QVQLVQSGAEVKKPGASVKVSCKASGYTFTSYWIHWVRQAPGQGLEWIGMIHPNSGSTYYNEKFQGRVTMTVDKSTSTAYMELSSLRSEDTAVYYCARYYGSDYEWYFDVWGQGTTVTVSS VL: DIQMTQSPSSLSASVGDRVTITCKASQNVRTAVVWYQQKPGKAPKALIYLASNRHTGVPDRFSGSGSGTDFTLTISSLQPEDFATYYCLQHWNYPYTFGQGTKLEIK	no binding (tested: 1000 nM antibody; 20 RU)	no binding (tested: 50 nM (highest analyte concentration))
0.025	0.065	15.8	900567 (human-mouse chimeric anti-CD73 antigen-binding protein expressed from 124A9 variable regions) (antibody, V domains shown) VH: QVQLQQPGAELVKPGASVKLSCKASGYTFTSYWIHWVKQRPGQGLDWIGMIHPNSGSTYYNEKFKSKATLTVDKSSSTAYMQLSSLTSEDSAVYYCARYYGSDYEWYFDVWGTGTTVTVSS VL: DIVMTQSQKFMSTSVGDRVSITCKASQNVRTAVVWYQQNPGQSPKALIYLASNRHTGVPDRFTGSGSGTDFTLTISNVHSEDLADYFCLQHWNYPYTFGGGTKLEIK	no binding (tested: 1000 nM antibody; 20 RU)	no binding (tested: 50 nM (highest analyte concentration))
